The data set concerns the molecule itself. As to the kind of experiment: crystal structure; sitting drop co-crystals of 10 mg/ml protein with 1 mM 2-HIB-CoA, 5 mM ADP, 5 mM MgCl2 and 5 mM dzThDP (or ThDP for the intermediate/product state); tetramer described as a dimer of dimers.

Residue numbers refer to the chain shown, from its start. Numbers in names are those of the source.

B1: 2-hydroxyacyl-CoA lyase from Actinomycetospora chiangmaiensis (WT AcHACL) (enzyme)
chain: MADRQDAERSGAGPARQSVPVASLVAEFLQEHGVDRVFGLQGGHIQPIWDQLARRGVRIVDVRDEGSAVHMAHAHTELTGQTAVAMVTAGPGVTNTVTAVANASVSRIPLLVIGGCPPIPQSNMGPLQDIPHTAILEPITRLARTLRSADQVLREFDEAWARASGDRGEPGPVYLEIPTDVLRRDVPPALQMREHLRAKPKRRPQPHPDDVAAVADLIRAAEKPAIISGRGARTTDGTDLVRLLDASGAAYLDTQESRGLVPDSHPAAVGSARSAVMRDTDLLITVGRQLDYQLGMGSPAVFPHAKVVRIADTASELIDNRRGEVEILAEPGAALAAIADALKDHTPDTSWRDELKAKHRKRAEDYRQALHSTENGADGHIHPNRIFGALDALDGDVLDLGETIMIADGGDLLSFGRLGITKARRYLDAGAFGCLGVATPFAIGAALAYPDRPVVAVTGDGAFGITATEIDTAVRHDAKIVVIVSNNRAWNIERYDQAENYGLVVGTDLADSDYAGVARAFGAHGERVTDPAELEGAIRRALANAPALVDVVTTQDAASPDSGKGLGFVPDYQALTPWNDAEVARRQEGI
notes: 2-hydroxyacyl-CoA lyase (AcHACL) of Actinomycetospora chiangmaiensis DSM 45062; residues up to 590 are named in the text; Crystallised with 2-HIB-CoA and dzThDP (7PT1) or ThDP (7PT4); also called actinobacterial 2-hydroxyacyl-CoA lyase
On to B1, for which the “stoichiometry N” value came out at 4.

B2: AcHACL E493A mutant (enzyme)
chain: B1 chain with E493A
notes: 2-hydroxyacyl-CoA lyase (AcHACL) of Actinomycetospora chiangmaiensis DSM 45062 with E493A, made by site-directed mutation of the WT construct in pASG-IBA43; it says that the overall structure is identical to the WT (tetramer); also called alanine mutant; source: same protocol as WT)
With B2, the binding result is recorded as “binds”.

B3: AcHACL E493Q mutant (enzyme)
chain: B1 chain with E493Q
notes: 2-hydroxyacyl-CoA lyase (AcHACL) of Actinomycetospora chiangmaiensis DSM 45062 with E493Q, made by site-directed mutation of the WT construct in pASG-IBA43; it says that the overall structure is identical to the WT (tetramer); source: same protocol as WT)
Regarding B3, the binding result is listed as “binds”.

Source of the values: article PMC8760513, “Mechanistic details of the actinobacterial lyase-catalyzed degradation reaction of 2-hydroxyisobutyryl-CoA” (The Journal of Biological Chemistry, 2021).
